Measurements reported in US20070042959A1, “Thrombin-inhibiting peptides” (priority 1997, published 2007).

What was measured:
[1] = clinical studies; easily overdosed; cited from earlier work
[2] = test system: blood clotting (human citrate plasma); test: activated partial thromboplastin time (APTT), action on blood clotting; type: biochemical; details: at low concentrations; pre-clinical data, see sample application 1
Method: The action of triabin and hirudin on blood clotting was measured by determining the activated partial thromboplastin time (APTT). 100 μl of human citrate plasma, 10 μl of inhibitor (triabin or hirudin) and 100 μl of APTT reagent (pathromtin from the Behring Company) were incubated for 3 minutes at 37° C. After 100 μl of a 25 mmol CaCl2 solution was added, the time until clots formed was measured. The measuring was carried out in a fibrometer of the Sarstedt Company. The results are indicated in an extension of the clotting time, which was measured without adding inhibitor.

hirudin
bleeding on overdosing [1]: severe bleeding complications
inhibition of clotting [2]: inhibits at low concentrations
